For the data set the following is noted: Rattus norvegicus; pH 7.3; 20 °C; GdnHCl; Fluorescence; potassium phosphate 20 mM; whole UniProt chain shown.

B1: Fatty acid-binding protein, intestinal wild type, P02693 (protein)
chain: MAFDGTWKVDRNENYEKFMEKMGINVVKRKLGAHDNLKLTITQEGNKFTVKESSNFRNIDVVFELGVDFAYSLADGTELTGTWTMEGNKLVGKFKRVDNGKELIAVREISGNELIQTYTYEGVEAKRIFKKE
In the case of B1, the “denaturant midpoint (higher = more stable)” value is 1.4 M and the unfolding free energy is 5 kcal/mol.

For the origin of these results see FireProtDB (doi:10.1021/bi012042l).
